We go through one molecule from PMC12668182 (2025).

The target of this test is N-His-ZB-CSB-Avi-Biotin (WT), full length (human, UniProt Q03468 1-1493, biotin on the C-terminal Avi tag). The test is described as follows: SPR. (In general: Surface plasmon resonance follows binding to a sensor surface in real time, without labels.)

For orientation: Kd means the concentration at which binding is half-saturated. A lower Kd goes with tighter binding.

N-His-ZB-CSB-Avi-Biotin (WT), full length, sequence (Q03468 whole entry): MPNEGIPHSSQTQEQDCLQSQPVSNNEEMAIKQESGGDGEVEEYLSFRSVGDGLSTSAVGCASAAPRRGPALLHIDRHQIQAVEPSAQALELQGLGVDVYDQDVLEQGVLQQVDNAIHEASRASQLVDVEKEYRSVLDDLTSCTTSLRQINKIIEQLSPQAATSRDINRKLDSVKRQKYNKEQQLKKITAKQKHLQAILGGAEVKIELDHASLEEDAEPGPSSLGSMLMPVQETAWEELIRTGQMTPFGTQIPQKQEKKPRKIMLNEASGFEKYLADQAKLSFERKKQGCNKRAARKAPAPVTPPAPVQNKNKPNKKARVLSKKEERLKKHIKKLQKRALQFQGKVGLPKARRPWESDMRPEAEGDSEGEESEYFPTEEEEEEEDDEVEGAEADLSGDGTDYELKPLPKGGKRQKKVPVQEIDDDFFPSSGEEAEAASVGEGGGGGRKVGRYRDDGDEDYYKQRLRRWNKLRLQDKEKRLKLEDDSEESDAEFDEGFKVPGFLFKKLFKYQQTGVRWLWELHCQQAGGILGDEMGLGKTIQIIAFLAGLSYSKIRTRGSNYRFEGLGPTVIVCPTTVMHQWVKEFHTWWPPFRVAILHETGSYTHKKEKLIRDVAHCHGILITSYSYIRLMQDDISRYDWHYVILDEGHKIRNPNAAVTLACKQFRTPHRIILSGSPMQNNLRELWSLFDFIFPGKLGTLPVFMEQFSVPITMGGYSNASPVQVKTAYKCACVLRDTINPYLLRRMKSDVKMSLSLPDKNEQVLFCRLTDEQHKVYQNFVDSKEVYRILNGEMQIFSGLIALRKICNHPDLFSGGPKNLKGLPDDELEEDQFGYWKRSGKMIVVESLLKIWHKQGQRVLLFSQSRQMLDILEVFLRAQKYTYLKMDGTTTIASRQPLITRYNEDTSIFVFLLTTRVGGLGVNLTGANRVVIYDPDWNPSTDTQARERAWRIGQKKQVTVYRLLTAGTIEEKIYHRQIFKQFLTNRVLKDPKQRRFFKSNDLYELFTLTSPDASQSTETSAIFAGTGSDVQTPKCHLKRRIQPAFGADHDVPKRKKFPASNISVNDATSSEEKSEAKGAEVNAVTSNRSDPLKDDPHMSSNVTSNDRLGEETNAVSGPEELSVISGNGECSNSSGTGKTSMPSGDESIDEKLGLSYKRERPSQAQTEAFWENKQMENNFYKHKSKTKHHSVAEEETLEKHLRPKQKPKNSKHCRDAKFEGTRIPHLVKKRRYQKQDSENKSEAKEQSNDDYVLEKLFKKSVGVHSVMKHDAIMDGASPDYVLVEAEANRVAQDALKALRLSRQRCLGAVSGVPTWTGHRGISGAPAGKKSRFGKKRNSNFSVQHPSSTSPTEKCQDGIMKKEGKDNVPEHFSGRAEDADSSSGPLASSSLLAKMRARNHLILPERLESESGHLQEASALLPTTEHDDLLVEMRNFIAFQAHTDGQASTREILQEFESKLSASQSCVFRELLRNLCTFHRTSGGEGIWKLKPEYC

B1: SNM1A (WT, a.a. 698-1040, untagged) (domain or fragment)
chain: KKTCPFYKKIPGTGFTVDAFQYGVVEGCTAYFLTHFHSDHYAGLSKHFTFPVYCSEITGNLLKNKLHVQEQYIHPLPLDTECIVNGVKVVLLDANHCPGAVMILFYLPNGTVILHTGDFRADPSMERSLLADQKVHMLYLDTTYCSPEYTFPSQQEVIRFAINTAFEAVTLNPHALVVCGTYSIGKEKVFLAIADVLGSKVGMSQEKYKTLQCLNIPEINSLITTDMCSSLVHLLPMMQINFKGLQSHLKKCGGKYNQILAFRPTGWTHSNKFTRIADVIPQTKGNISIYGIPYSEHSSYLEMKRFVQWLKPQKIIPTVNVGTWKSRSTMEKYFREWKLEAGY
B1 registered a Kd of 140 nM.
